Here are results for 1 substance from article PMC5553292.

The test addresses Recombinant human PDK2 (pyruvate dehydrogenase kinase 2) (human). Description: dynamic light scattering.

In the case of “Recombinant human PDK2 (pyruvate dehydrogenase kinase 2) (enzyme)”, the stoichiometry N was found to be 2.

The term stoichiometry N denotes a count of units in the complex or per binding partner.
